In IntAct's records for PubMed 30564455:

biological target: ddb1_human DDB1 (UniProt Q16531)
Sequence (Q16531 whole entry): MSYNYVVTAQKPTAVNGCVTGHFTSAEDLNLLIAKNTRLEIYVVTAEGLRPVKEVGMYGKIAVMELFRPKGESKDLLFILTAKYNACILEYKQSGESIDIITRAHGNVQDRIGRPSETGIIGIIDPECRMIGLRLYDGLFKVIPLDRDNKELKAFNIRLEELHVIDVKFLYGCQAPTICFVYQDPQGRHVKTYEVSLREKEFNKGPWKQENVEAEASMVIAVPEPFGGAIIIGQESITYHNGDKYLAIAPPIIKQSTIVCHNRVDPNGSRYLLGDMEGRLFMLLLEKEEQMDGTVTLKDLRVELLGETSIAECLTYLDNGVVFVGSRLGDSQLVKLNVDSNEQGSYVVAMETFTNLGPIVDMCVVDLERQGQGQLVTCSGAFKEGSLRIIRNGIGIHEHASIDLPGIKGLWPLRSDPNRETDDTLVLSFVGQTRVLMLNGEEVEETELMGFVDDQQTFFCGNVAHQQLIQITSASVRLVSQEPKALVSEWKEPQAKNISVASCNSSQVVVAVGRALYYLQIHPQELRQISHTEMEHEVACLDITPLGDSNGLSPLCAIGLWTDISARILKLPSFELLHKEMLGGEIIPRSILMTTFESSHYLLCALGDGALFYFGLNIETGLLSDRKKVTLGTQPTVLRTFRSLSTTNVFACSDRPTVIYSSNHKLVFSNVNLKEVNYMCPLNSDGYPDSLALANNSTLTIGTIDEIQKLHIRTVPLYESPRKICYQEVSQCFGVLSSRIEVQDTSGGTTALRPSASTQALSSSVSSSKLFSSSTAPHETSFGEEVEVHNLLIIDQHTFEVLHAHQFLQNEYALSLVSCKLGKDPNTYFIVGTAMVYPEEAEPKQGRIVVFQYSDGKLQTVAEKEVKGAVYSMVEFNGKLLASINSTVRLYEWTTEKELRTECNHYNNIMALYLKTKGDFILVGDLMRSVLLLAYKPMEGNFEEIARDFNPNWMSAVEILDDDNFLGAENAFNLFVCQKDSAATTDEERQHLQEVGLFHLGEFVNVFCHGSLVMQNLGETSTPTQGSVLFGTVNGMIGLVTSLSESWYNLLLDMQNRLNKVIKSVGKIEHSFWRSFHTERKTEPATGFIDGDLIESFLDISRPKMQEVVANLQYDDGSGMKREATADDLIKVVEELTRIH

Row | Substance | effect of a mutation on the interaction
1 | DET1- and DDB1-associated protein 1 (Homo sapiens) (from UniProt Q9BW61) P9D | disrupting interaction strength
2 | DET1- and DDB1-associated protein 1 (Homo sapiens) (from UniProt Q9BW61) N15D | disrupting interaction strength
3 | DET1- and DDB1-associated protein 1 (Homo sapiens) (from UniProt Q9BW61) F16D | disrupting interaction strength
4 | DET1- and DDB1-associated protein 1 (Homo sapiens) (from UniProt Q9BW61) H20D | disrupting interaction strength
